According to patent publication US20110195494A1 (Boehringer Ingelheim, published 2011):

B1: DLLBII112E07 (VHH)
VHH: EVQLVESGGGLVQAGGSLRLSCAASGRTVRSYATGWFRQAPGKEREFVAALRWSIGSIASVYYDDSVKGRFTISGDNAENTVYLQMNALKPEDTAIYYCASTTRGRYSALSASAYDYWGQGTQVTVSS
notes: tested as periplasmic extract; also called DLLBII112E7; not shown: C-terminal c-myc tag and His6 tag
B2: DLLBII8C11 (VHH)
VHH: EVQLVESGGGLVQAGGSLRLSCAASGFTFDDYAIGWFRQAPGKEREGVSCISSHDRTTYYADSVKGRFTISSDNAKNTVYLQMNSLKPEDTAVYYCAADPLVCGYNDPRLADYWGQGTQVTVSS
notes: also called DLLBII08C11; not shown: C-terminal c-myc tag and His6 tag
B3: DLLBII6B11 (VHH)
VHH: EVQLVESEGGLVQAGGSLRLSCAASGSTFSSYAMGWYRQAPGKQRELVAVISNGGITNYPNSVKGRFTISRDNAKNTVYLQMNSLKPEDTAVYYCFYSGSYYYPTDVHEYDYWGQGTQVTVSS
notes: also called DLLBII06B11; not shown: C-terminal c-myc tag and His6 tag
B4: DLLBII58A11 (VHH)
VHH: EVQLVESGGGLVQAGGSLRLSCTTSERTVSRYSMGWFRQAPGKEREAVATISWSGDSTYYADSVKGRFTISRDNTKNTLYLQIDSLKPEDTAVYYCVAKPNLKYGSYWPPRGYDYWGQGTQVTVSS
notes: tested as periplasmic extract; not shown: C-terminal c-myc tag and His6 tag
B5: DLLBII5B11 (VHH)
VHH: EVQLVESGGGLVQPGGSLRLSCAISGFTLDLHVIGWLRQAPGKEREWVSCISSSDGSTYYADSVKGRFTISRDNAKNTVYLQMNSLKPEDTAVYYCAAPWDSWYCGIGNDYDYWGQGTQVTVSS
notes: also called DLLBII05B11; not shown: C-terminal c-myc tag and His6 tag
B6: DLLBII80E08 (VHH)
VHH: EVQLVESGGGLVQAGGSLTLSCAASGGTFTTYAMGWFRQAPGKEREFVAAVSRFGVSWDYADSVKGRFTISRDNTANTLKLRMNSLKADDTAVYYCAAGGRSFLPFVPAYWGQGTQVTVSS
notes: tested as periplasmic extract; also called DLLBII80E8; not shown: C-terminal c-myc tag and His6 tag
B7: DLLBII7B05 (VHH)
VHH: EVQLVESGGGLVQAGGSLRLSCAASGFALDYYAVGWFRQAPGKEREGVSCISSRGGSTFYADSVKGRFTTSRNNAKNTVYLQMNSLKPEDTAVYYCAAHPLQNCCGGSAYASPEAVYEYWGQGTQVTVSS
notes: also called DLLBII07B05; DLLBII7B5; not shown: C-terminal c-myc tag and His6 tag
B8: DLLBII95F02 (VHH)
VHH: EVQLVESGGGSVQAGGSLRLSCAASGRTFSSYAMGWFRQAPGKEREFVAAINWSGGYTYYADSVRGRFTISRDNAKNTVYLQMNSLKPEDTAVYYCAAPAPGSSGYEYDYWGQGTQVTVSS
notes: tested as periplasmic extract; also called DLLBII95F2; not shown: C-terminal c-myc tag and His6 tag
B9: DLLBII101H09 (VHH)
VHH: EVQLVESGGGLVQPGGSLRLSCAASGFTLGYYTIVWFRQAPGKERKGVSCISSRDGSRYYADSVKGRFTISRDNAKNTVYLRMNSLKPEDTAVYYCAAGPDCSSYDYWGQGTQVTVSS
notes: tested as periplasmic extract; also called DLLBII101H9; not shown: C-terminal c-myc tag and His6 tag
B10: DLLBII104C04 (VHH)
VHH: EVQLVESGGGLVQAGGSLRLSCAAAGSTFSSYVMGWYRQAPGKQRELVAHISTRGITYYADSVKGRFTISRDNAKNTMYLQMNSLKPEDTAVYYCNTRRNFLSNYWGQGTQVTVSS
notes: tested as periplasmic extract; also called DLLBII104C4; not shown: C-terminal c-myc tag and His6 tag
B11: DLLBII102G04 (VHH)
VHH: EVQLMESGGGLVQPGGSLRLSCAASGFTFSSYAMSWVRQAPGKGLEWVSRITSGGRTTYRDSVKGRFTISRDNSKNTLYLQMNSLKPEDTALYYCAKARGDIDVYTLSDSRGQGTQVTVSS
notes: tested as periplasmic extract; also called DLLBII102G4; not shown: C-terminal c-myc tag and His6 tag
B12: DLLBII101F01 (VHH)
VHH: EVQLVESGGGLVQAGGSLRLSCAASGRTFSNYAMGWFRQAPGKEREFVAAISWSGGDTYYADSVKGRFTISRDNAKNTVCLQMNSLKPEDTAVYYCAASFQSGAAPGANFYDYWGQGTQVTVSS
notes: tested as periplasmic extract; also called DLLBII101F1; not shown: C-terminal c-myc tag and His6 tag
B13: DLLBII112A04 (VHH)
VHH: EVQLVESGGGLVQAGGSLRLSCAAFGRTPYGMGWFRQAPGKEREFVAAITSDGSTNYADSVKGRFTISRDNAKNAVSLQMNSLKPEDTAVYYCTAPYYSDFEGTTTEYDYWGQGTQVTVSS
notes: tested as periplasmic extract; also called DLLBII112A4; not shown: C-terminal c-myc tag and His6 tag
B14: DLLBII104A03 (VHH)
VHH: EVQLVESGGGLVQAGGSLRLSCAASGDIPRIAAMGWYRQAPGKQRELVATVSNAATTRYADSAKGRFTISRDNAKTVSLQMDNLKPEDTGVYYCYSLATTVTPSWVNYWGQGTQVTVSS
notes: tested as periplasmic extract; also called DLLBII104A3; not shown: C-terminal c-myc tag and His6 tag
B15: DLLBII62C11 (VHH)
VHH: EVQLMESGGGLVQPGGSLRLSCVAAGFTFSNYYMSWVRQAPGKGLEWVSVISPDGSNTYYADTVKGRFTISRGNAKNTLFLQMTGLKSEDAAVYYCARGSGSWGVHGQGTQVTVSS
notes: not shown: C-terminal c-myc tag and His6 tag
B16: DLLBII47D01 (VHH)
VHH: EVQLVESGGGLVQPGGSLRLSCAASGFTFDDYAIGWFRQAPGKEREGVSCISSSGSTYYADSVKGRFTISRDNAKNTVYLQMNSLKPEDTAVYYCAIAGASSWCFPPGYWGQGTQVTVSS
notes: tested as periplasmic extract; also called DLLBII47D1; not shown: C-terminal c-myc tag and His6 tag
B17: DLLBII96C03 (VHH)
VHH: EVQLVESGGGLVQPGGSLRLSCAASGFTFGNYDMSWVRQAPGKGPEWVSAINSGGGDTYYADSVKGRFTISRDNAKNTLYLQMNSLKPEDTAVYYCATPRGWGPTGPHEYGYWGQGTQVTVSS
notes: also called DLLBII96C3; DLLBII96CO3; not shown: C-terminal c-myc tag and His6 tag
B18: DLLBII107C03 (VHH)
VHH: EVQLVESGGGLVQPGGSLRLSCEVSGSIGSVSDMRWYRQAPGLQYELVARITSGSITDYSDSVKGRFTISRDNAKNTVYLQMNSLKPEDTAVYYCNADVQHSAWLKPLTYWGQGTQVTVSS
notes: tested as periplasmic extract; also called DLLBII107C3; not shown: C-terminal c-myc tag and His6 tag
B19: DLLBII112A03 (VHH)
VHH: EVQLVESGGGLVQPGGSLRLSCAASGIRFSINGMGWYRQAPGKQREAVATITRGGIRDYTDSVKGRFTISRDIARNTVYLQMNNLKPEDSAVYYCNIDIYWGRGTQVTVSS
notes: tested as periplasmic extract; also called DLLBII112A3; not shown: C-terminal c-myc tag and His6 tag
B20: DLLBII19D10 (VHH)
VHH: EVQLVESGGGLVQAGDSLRLSCAASGRTVGSYDMSWVRQGPGKEREWVSSINSGVGKTYYADSVKGRFTIFRDNAKNMVYLQMNNLKPEDTAVYYCATEMDGSRYVEGQGTQVTVSS
notes: as for B4
B21: DLLBII102F08 (VHH)
VHH: EVQLVESGGGLVQTGDSLRLSCAASGSTFSNYRMGWFRQGPGKEREFVAAIGRNGQNTYYTDSVKGRFTVTRDNAKNMVYLQMNSLKPEDSAVYTCAASLRGWDTTRIDYEYWGQGTQVTVSS
notes: tested as periplasmic extract; also called DLLBII102F8; not shown: C-terminal c-myc tag and His6 tag
B22: DLLBII33C05 (VHH)
VHH: EVQLVESGGGLVQAGGSLRLSCAASGFTLDNYVIGWFRQAPGKEREEVSCISSSGGSTDYLDSVKGRFTISRDNAKNTVYLQMNSLKPEDTAVYYCAADSLPCYYDKMVYDYWGQGTQVTVSS
notes: tested as periplasmic extract; also called DLLBII33C5; not shown: C-terminal c-myc tag and His6 tag
B23: DLLBII115A05 (VHH)
VHH: EVQLVESGGGLVQPGGSLRLSCAASGFTFGSYDMSWVRRSPGKGPEWVSSINSGGGSTYYADFVKGRFTISRDNAKNTLYLQMNSLKPEDTAVYYCAADRYIRARQGDYWGAYEYDYWGQGTQVTVSS
notes: also called DLLBII115A5; 115A5; not shown: C-terminal c-myc tag and His6 tag
B24: DLLBII61F07 (VHH)
VHH: EVQLVESGGGLVQAGGSLRLSCAASGRTFSRYAMGWFRQAPGKEREFVAAINWSGGSTYYADSVKGRFTISRDNAKNTVYLQMNSLKPEDTAVYDCAASNYYSVYDDRPVMDYWGQGTQVTVSS
notes: tested as periplasmic extract; also called DLLBII61F7; not shown: C-terminal c-myc tag and His6 tag
B25: DLLBII104B05 (VHH)
VHH: EVQLVESGGGSVQAGGSLRLSCAASGSISRIDVMAWYRQAPGKERELVASISSGGSTNYADSVKGRFTISREYFKNMMYLQMNSLKFEDTAVYYCNADSRRGGVGNFFRSWGQGTQVTVSS
notes: tested as periplasmic extract; also called DLLBII104B5; not shown: C-terminal c-myc tag and His6 tag
B26: DLLBII61F05 (VHH)
VHH: EVQLVESGGGLVQPGGSLRLSCTASGFTFSSYAMSWVRQAPGKGLEWVSFINKDGSDTGYADSVKGRFTISRDNAKNTMYLQMNSLKPEDTAVYFCETRTSRSPRPRGQGTQVTVSS
notes: tested as periplasmic extract; also called DLLBII61F5; not shown: C-terminal c-myc tag and His6 tag
B27: DLLBII8A09 (VHH)
VHH: EVQLVESGGGLVQPGGSLRLSCAASGFTLDYYNIGWFRQAPGKEREWVSCINSSDGSTYYADSVKGRFTISRDNAKNTVYLQMNSLKPEDTAVYYCAAPFAYYSNLCGVNGYDYWGQGTQVTVSS
notes: also called DLLBII08A09; not shown: C-terminal c-myc tag and His6 tag

Assays:
[1] = biological target: T1, full length mouse DLL4 on overexpressing CHO or HEK293 cells (mouse, UniProt Q9JI71 27-686); assay: FMAT, hNotch1/Fc on CHO-mDLL4, periplasmic extract
T1 construct: whole, on cells; also called CHO-mDLL4; mDLL4
T1 sequence (Q9JI71 27-686): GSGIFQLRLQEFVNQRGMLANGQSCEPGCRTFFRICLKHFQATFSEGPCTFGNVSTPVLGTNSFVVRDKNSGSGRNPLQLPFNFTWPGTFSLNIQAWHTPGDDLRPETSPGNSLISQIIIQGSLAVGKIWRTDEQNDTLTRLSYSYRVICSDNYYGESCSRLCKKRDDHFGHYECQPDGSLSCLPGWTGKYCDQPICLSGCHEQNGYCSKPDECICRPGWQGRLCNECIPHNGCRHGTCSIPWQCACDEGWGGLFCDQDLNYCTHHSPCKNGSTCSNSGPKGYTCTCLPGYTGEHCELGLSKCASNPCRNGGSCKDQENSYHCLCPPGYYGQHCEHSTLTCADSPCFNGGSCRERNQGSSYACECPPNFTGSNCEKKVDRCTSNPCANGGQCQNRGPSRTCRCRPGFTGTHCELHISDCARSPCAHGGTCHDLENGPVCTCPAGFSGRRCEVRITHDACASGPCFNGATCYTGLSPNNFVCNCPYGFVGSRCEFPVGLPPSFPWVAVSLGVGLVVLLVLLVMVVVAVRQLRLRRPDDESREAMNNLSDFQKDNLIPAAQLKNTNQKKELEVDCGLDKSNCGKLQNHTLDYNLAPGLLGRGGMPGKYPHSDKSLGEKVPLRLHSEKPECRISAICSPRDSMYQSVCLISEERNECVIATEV
Description: (§1) All calculations are based on the FL1 total signal which comprises the average of the fluorescence per well times the number of counts per well.

[2] = biological target: T2, full length human DLL4 on overexpressing CHO or HEK293 cells (human, UniProt Q9NR61 27-685); assay: FMAT, hNotch1/Fc on CHO-hDLL4, periplasmic extract
T2 construct: also called CHO-hDLL4; HEK293-hDII4
T2 sequence (Q9NR61 27-685 limits assumed): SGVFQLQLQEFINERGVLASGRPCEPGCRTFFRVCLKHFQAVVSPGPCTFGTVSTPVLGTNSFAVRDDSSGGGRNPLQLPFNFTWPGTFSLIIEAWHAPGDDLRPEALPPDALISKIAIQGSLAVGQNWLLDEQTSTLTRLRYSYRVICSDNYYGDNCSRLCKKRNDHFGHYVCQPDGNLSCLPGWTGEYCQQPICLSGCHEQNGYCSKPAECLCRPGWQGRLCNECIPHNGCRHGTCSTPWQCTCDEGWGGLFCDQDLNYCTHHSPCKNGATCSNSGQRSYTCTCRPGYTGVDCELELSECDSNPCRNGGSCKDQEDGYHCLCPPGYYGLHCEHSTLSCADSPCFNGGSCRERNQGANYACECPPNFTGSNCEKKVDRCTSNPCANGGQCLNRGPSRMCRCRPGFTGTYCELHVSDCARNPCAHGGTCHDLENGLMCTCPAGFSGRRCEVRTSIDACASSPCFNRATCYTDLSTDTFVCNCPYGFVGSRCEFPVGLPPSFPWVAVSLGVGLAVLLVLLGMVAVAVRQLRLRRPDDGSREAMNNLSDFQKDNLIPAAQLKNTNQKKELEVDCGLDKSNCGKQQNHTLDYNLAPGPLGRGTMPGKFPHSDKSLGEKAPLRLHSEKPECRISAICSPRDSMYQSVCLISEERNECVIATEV
Description: as §1

[3] = biological target: T3, recombinant human DLL4, C-terminally His-tagged extracellular domain (R&D Systems) (human, UniProt Q9NR61 25-522, biotinylated where used in competition ELISA, AlphaScreen and on SA chips); assay: competition ELISA, periplasmic extract
T3 construct: also called rhDLL4; hDLL4; not shown: C-terminal His tag
T3 sequence (Q9NR61 25-522): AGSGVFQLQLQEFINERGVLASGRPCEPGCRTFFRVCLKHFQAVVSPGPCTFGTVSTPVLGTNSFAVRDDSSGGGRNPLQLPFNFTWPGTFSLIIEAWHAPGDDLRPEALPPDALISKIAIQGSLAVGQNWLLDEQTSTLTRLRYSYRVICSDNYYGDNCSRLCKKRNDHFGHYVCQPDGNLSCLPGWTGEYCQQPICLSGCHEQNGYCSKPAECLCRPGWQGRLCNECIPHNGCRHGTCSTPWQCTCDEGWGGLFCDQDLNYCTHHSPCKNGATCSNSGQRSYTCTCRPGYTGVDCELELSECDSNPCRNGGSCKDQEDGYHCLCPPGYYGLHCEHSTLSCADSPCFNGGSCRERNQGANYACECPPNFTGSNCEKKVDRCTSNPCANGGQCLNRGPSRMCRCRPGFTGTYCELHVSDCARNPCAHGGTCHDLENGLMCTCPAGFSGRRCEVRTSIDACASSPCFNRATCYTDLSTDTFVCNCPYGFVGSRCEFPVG

[4] = biological target: T3, recombinant human DLL4, C-terminally …; assay: hDLL4/hNotch1-Fc AlphaScreen, periplasmic extract
Protocol: Periplasmic extracts are screened in a human DII4/human Notch1 AlphaScreen assay to assess the blocking capacity of the expressed VHHs. Human DII4 is biotinylated using biotin (Sigma, St Louis, Mo., USA) and biotinamidohexanoic acid 3-sulfo-N-hydroxysuccinimide ester sodium salt (Sigma, St Louis, Mo., USA). […] To evaluate the neutralizing capacity of the VHHs, dilution series of the periplasmic extracts are pre-incubated with biotinylated human DII4. To this mixture, the acceptor beads and the streptavidin donor beads are added and further incubated for 1 hour at room temperature. Fluorescence is measured by reading plates on the Envision Multilabel Plate reader (Perkin Elmer, Waltham, Mass., USA) using an excitation wavelength of 680 nm and an emission wavelength of 520 nm.

| Binder | FMAT mDLL4 % inhibition [1] | FMAT hDLL4 % inhibition [2] | ELISA hDLL4 % inhibition [3] | Alpha Screen hDLL4 % inhibition [4] |
| --- | --- | --- | --- | --- |
| B1 | 85% | 80% |  |  |
| B2 |  |  | 57% |  |
| B3 |  |  | 98% |  |
| B4 | 73% | 95% |  |  |
| B5 |  |  | 98% |  |
| B6 | 82% | 71% |  |  |
| B7 |  |  | 84% |  |
| B8 | 71% | 81% |  |  |
| B9 | 75% | 87% |  |  |
| B10 | 83% | 87% |  |  |
| B11 | 82% | 86% |  |  |
| B12 | 78% | 85% |  |  |
| B13 | 90% | 75% |  |  |
| B14 | 83% | 86% |  |  |
| B15 | 71% | 74% |  |  |
| B16 |  | 87% |  |  |
| B17 | 83% | 75% |  |  |
| B18 | 80% | 75% |  |  |
| B19 | 97% | 72% |  |  |
| B20 |  |  | 98% | 85% |
| B21 | 75% | 85% |  |  |
| B22 |  |  | 86% | 75% |
| B23 | 84% | 74% |  |  |
| B24 | 77% | 79% |  |  |
| B25 | 78% | 86% |  |  |
| B26 | 76% | 74% |  |  |
| B27 |  |  | 96% |  |
